Source: PMC3369541 (Methods in Molecular Biology (Clifton, N.j.), 2012)

Biological target: T1, FUS1 peptide (wild-type PDZ protein-binding motif)
T1 peptide: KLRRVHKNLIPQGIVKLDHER
Assay: ProteinChip array with SELDI-TOF mass spectrometry

Q: Does LGILYILQTLE [Apaf1 peptide (PDZ protein-binding motif)] bind?
A: binds
